Laboratory results published in PMC6208296, “Redox regulation of pyruvate kinase M2 by cysteine oxidation and S-nitrosation” (Biochemical Journal, 2018).
pKd: −log10 of the molar value.

Columns and labels:
[1] = biological target: M2 isoform of human pyruvate kinase, wild type (human) (UniProt P14618); test: SEC; analytical gel filtration, Superdex 200 PC 3.2/30 in PBS-CM, room temperature; 0.1 mg/ml incubated 12 h (equilibrium) without or with 1 mM DTT or 20 μM H2O2; tetramer to monomers, peak areas on a bimodal distribution
[2] = biological target: M2 isoform of human pyruvate kinase, wild type (human) (UniProt P14618); test: SEC; analytical gel filtration, Superdex 200 PC 3.2/30 in PBS-CM, room temperature; stock of ∼20 mg/ml diluted to 0.1 mg/ml and incubated 1 h without or with 1 mM DTT or 20 μM H2O2; tetramer to monomers, peak areas on a bimodal distribution
[3] = biological target: Pyruvate kinase M2 (Homo sapiens) (UniProt P14618); test: gel filtration; conditions: cited from earlier work

Chain of M2 isoform of human pyruvate kinase, wild type, P14618 1-531 (enzyme; other documents disagree on this pair) (P14618 whole entry, canonical isoform): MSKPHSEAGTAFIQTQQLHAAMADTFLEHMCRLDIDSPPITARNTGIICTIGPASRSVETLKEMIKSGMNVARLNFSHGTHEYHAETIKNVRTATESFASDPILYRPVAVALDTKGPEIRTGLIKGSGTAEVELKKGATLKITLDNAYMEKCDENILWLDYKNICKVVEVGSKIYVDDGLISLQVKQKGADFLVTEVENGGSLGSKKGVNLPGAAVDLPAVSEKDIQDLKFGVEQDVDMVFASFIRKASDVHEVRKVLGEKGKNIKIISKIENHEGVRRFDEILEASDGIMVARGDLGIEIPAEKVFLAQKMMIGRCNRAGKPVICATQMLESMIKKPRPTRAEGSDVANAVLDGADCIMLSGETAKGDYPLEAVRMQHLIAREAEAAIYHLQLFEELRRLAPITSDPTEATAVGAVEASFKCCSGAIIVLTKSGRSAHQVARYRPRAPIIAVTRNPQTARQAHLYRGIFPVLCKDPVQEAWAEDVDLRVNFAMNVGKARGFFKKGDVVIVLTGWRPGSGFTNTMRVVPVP
Chain of Pyruvate kinase M2 (P14618 2-531): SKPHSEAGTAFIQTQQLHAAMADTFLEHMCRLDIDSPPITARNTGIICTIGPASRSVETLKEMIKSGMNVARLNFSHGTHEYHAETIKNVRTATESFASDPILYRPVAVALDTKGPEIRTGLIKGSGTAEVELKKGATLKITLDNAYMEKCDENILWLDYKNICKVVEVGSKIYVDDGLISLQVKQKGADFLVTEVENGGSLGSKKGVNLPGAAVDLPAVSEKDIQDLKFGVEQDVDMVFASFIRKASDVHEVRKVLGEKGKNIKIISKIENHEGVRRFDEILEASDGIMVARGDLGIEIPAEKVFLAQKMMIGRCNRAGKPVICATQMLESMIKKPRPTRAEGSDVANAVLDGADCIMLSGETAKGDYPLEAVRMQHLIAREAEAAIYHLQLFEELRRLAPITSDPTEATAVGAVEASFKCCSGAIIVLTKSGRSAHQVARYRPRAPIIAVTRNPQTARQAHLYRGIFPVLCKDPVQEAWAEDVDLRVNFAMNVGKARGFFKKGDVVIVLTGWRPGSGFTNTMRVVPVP

percent tetramer (20 μM H2O2, 12 h) [1] | percent tetramer (1 mM DTT, 12 h) [1] | percent tetramer (no DTT, no H2O2, 12 h) [1] | percent tetramer (20 μM H2O2, 1 h) [2] | percent tetramer (1 mM DTT, 1 h) [2] | percent tetramer (no DTT, no H2O2, 1 h) [2] | Substance | pKd [3]
42% | 71% | 55% | 63% | 64% | 62% | M2 isoform of human pyruvate kinase, wild type, P14618 1-531 (enzyme; other documents disagree on this pair) | –
– | – | – | – | – | – | Pyruvate kinase M2 (from UniProt P14618) | 6.05
